From article PMC3088709, “Phosphorylation of the Yeast γ-Tubulin Tub4 Regulates Microtubule Function” (PLoS ONE, 2011) come the findings set out here.

First the molecules themselves.
B1: Tub4 (yeast gamma-tubulin), wild type, untagged [S. cerevisiae] / Spc97-3HA [S. cerevisiae] (parent complex)
chain 1: MGGEIITLQAGQCGNHVGKFLWSQLAKEHAIGTDGLSQLPDSSTERDDDTKPFFRENSRNKFTPRAIMMDSEPSVIADVENTFRGFFDPRNTWVASDGASAGNSWANGYDIGTRNQDDILNKIDKEIDSTDNFEGFQLLHSVAGGTGSGLGSNLLEALCDRYPKKILTTYSVFPARSSEVVVQSYNTILALRRLIEDSDATVVFDNASLLNISGKVFRNPNIDLQHTNQLISTIISSVTNSIRFPSYMYSSMSSIYSTLIPSPELHFLSPSFTPFTSDYIHDDIAHKGHSSYDVMLDLLDPSNSLVSTAMNNPTYFNVYNTIIGNVEPRQISRAMTKLQQRIKFPSWSSSAMHVNIGRRSPYLPLQPNENEVSGMMLSNMSTVVNVFENACNTFDKVFAKGAFLNNYNVGDLFQSMQNVQDEFAESREVVQSLMEDYVAAEQDSYLDDVLVDDENMVGELEEDLDADGDHKLV
chain 2: MEIKEVDDRAELLRYTNNIPLLGKLVNHQPLWSTNPKLKSFSLEKISAPDQRRVQEALVVKDLLNVLIGLEGTYIRYFNDYEPSDPETPIEFKIAKKMDPSFKTFSRRIVRYGKQYMILTRAYEKWSDTSFGMVLQRFAYEIRRFLEDVYLKTLVERLERDFNKVPNFSIRELEQIINETEVNKQMELLYNIYEEIFREIEERRTNQSSQEDFNNFMDSMKNESSLHLRLMVAFDTTVYPVPKGGAILKIFQQKILENLGDRSSVMFLKKLLNNISQDYCTMLYEWLTQGILNDPYQEFMTYDDLEGKTDNIFDTRDRAWDTQYFIRKDVLLRDCDSEEDKNLLFKMLRTGILLKVVRASLQIPTIPSNSSDITIQEINDFADLMEGSNLELYVDKCYSRANEIFLKLFFQGYDLINVLKHLQQIFLGYQSGHNVLKFLTKNMGELTKHYRNDNNANYDKLLQNFELERQSENPNNLMRQLLMIQFDTETLPQVLSHYLQIYPEVPENNSANDDSDPLMHANNFKNMNAILFDELSKERTGAYHGSNLELYTPKSAIYHLKFDINIPYPLNIIISRTCMIKYQIILRYQLVLQYHSRLLDETWMDLNKTPSWKYRGYSHTVKRRIVRATRVLHAKMNHFIKTIMEYFNQNVIDKEVYSLEKCYRNPTLAVAIQNELEGGLTNIMTNRCLSDLIPLQLQIFDIVYKFCKFIKSMRAKLCQLDPVLYEKHKSGMMKTLNEGYRTNNGGQEDVGYQEDAALELIQKLIEYISNASSIFRKCLINFTQELSTEKFDFYDSSSVDAAGIERVLYSIVPPRSASASSQR

The variants in the assay derive from B1. The experiment in a line: co-immunoprecipitation (anti-HA IP of Spc97-3HA), quantified immunoblot; TUB4-AID SPC97-3HA cells, IAA for 2 h at 30°C; normalized to precipitated Spc97-3HA; parent: 1; read off a plot.
With chain 1 S360D, the ratio to parent was approximately 0.41.
To chain 1 S100E belongs approximately 0.63.
